# ± gives the standard deviation of the averaged measurements.
# Test system: ATP
# Assay: switch fluorescence ratio, 500 uM ATP over buffer (Cy3 cluster intensity, sum of 5 cycles each) (fold (ratio)); higher = stronger signal-on switching upon ATP binding; sequences stand for … in TCGTCGGCAGCGTCAGATGTGTATAAGAGACAGTTTTTTTTTTTTTTTTTTTTTTTTT…TC
# Settings: aptamer strand: ATP DNA aptamer (quencher-CACCTGGGGGAGTATTGCGGAGGAAGG + anchor), 100 nM annealed; ATP concentration: 500 uM
# Summary of the method: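 Imaging in selection buffer was followed by imaging after 15 min with 500 uM ATP at 22 °C, for Cy3-labelled switching-strand clusters annealed to 100 nM quencher-labelled ATP aptamer on a modified Illumina MiSeq flow-cell. Five of these buffer/ATP cycles ran, separated by NaOH stripping and re-annealing. The fluorescence ratio per cluster is summed target-cycle over summed buffer-cycle Cy3 intensity, averaged per switch-domain sequence; clusters outside 100-1000 RFU were removed.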
# 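Also: ATP exposure 15 min at 22 °C before imaging.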
row,Sequence,switch fluorescence ratio
1,TTGGGGTTTA,1.03 ± 0.026
2,TTGGGTAATG,1.01 ± 0.027
3,TTGGGTACAT,1.02 ± 0.011
4,TTGGGTACGT,1.02 ± 0.026
5,TTGGGTAGCC,1.03 ± 0.032
6,TTGGGTAGGA,1.03 ± 0.04
7,TTGGGTATAA,0.989 ± 0.03
8,TTGGGTATAT,0.979 ± 0.037
9,TTGGGTATGC,0.99 ± 0.046
10,TTGGGTCCGG,1.03 ± 0.038
11,TTGGGTCGTT,0.994 ± 0.014
12,TTGGGTCTGG,0.965 ± 0.02
13,TTGGGTGAGC,0.994 ± 0.024
14,TTGGGTGGC,0.999 ± 0.011
15,TTGGGTGTGG,1.01 ± 0.037
16,TTGGGTTCAC,0.988 ± 0.01
17,TTGGGTTGGC,1.02 ± 0.043
18,TTGGGTTGGT,1.01 ± 0.049
19,TTGGTAAAGA,1 ± 0.013
20,TTGGTAAATG,0.999 ± 0.012
21,TTGGTAATGG,1.04 ± 0.051
22,TTGGTACGGA,0.986 ± 0.019
23,TTGGTAGAAA,0.982 ± 0.024
24,TTGGTAGCAA,1.81 ± 0.41
25,TTGGTAGTTT,1.022 ± 0.0061

row,Sequence,switch fluorescence ratio
1,TTGGTATAA,0.999 ± 0.021
2,TTGGTATCTT,0.999 ± 0.025
3,TTGGTATGAC,0.988 ± 0.076
4,TTGGTATGAG,0.997 ± 0.013
5,TTGGTATTTT,0.989 ± 0.018
6,TTGGTCCGTG,1.01 ± 0.071
7,TTGGTCCGTT,1.02 ± 0.045
8,TTGGTGAACG,0.989 ± 0.024
9,TTGGTGATGA,1.02 ± 0.023
10,TTGGTGATTG,0.976 ± 0.014
11,TTGGTGCCGC,0.975 ± 0.017
12,TTGGTGCGGA,0.975 ± 0.056
13,TTGGTGCTGG,1.01 ± 0.027
14,TTGGTGGGGG,0.989 ± 0.023
15,TTGGTGTGGC,0.9967 ± 0.0092
16,TTGGTGTGTA,1.002 ± 0.0089
17,TTGGTGTGTG,0.958 ± 0.022
18,TTGGTGTTAG,0.973 ± 0.031
19,TTGGTGTTGC,0.9916 ± 0.0057
20,TTGGTGTTTA,1.01 ± 0.022
21,TTGGTTAAGA,0.999 ± 0.04
22,TTGGTTACGG,1.014 ± 0.0041
23,TTGGTTAGCC,0.975 ± 0.078
24,TTGGTTATCT,1.01 ± 0.035
25,TTGGTTCATG,0.998 ± 0.015

row,Sequence,switch fluorescence ratio
1,TTGGTTCATT,1.01 ± 0.021
2,TTGGTTGAAT,0.998 ± 0.011
3,TTGGTTTAAT,1.01 ± 0.034
4,TTGGTTTCCT,1.02 ± 0.038
5,TTGTAAACGA,1.01 ± 0.042
6,TTGTAACCAG,1.0005 ± 0.001
7,TTGTAAGATT,0.987 ± 0.0048
8,TTGTAAGTAG,0.979 ± 0.012
9,TTGTAAGTTT,0.985 ± 0.049
10,TTGTAATAGG,1.27 ± 0.4
11,TTGTAATCAG,0.966 ± 0.045
12,TTGTAATTAA,0.9963 ± 0.0096
13,TTGTACTACC,1.1603 ± 0.00036
14,TTGTAGAAAA,1.3 ± 0.37
15,TTGTAGGCGA,1.09 ± 0.0026
16,TTGTAGGTAT,0.999 ± 0.069
17,TTGTAGTCTT,0.991 ± 0.022
18,TTGTATATGG,1.05 ± 0.022
19,TTGTATCAGT,1.01 ± 0.024
20,TTGTATTCTT,1.04 ± 0.088
21,TTGTATTTGG,1.02 ± 0.043
22,TTGTCCCTGC,1.016 ± 0.0054
23,TTGTCGGATT,0.991 ± 0.021
24,TTGTCTGGGG,0.985 ± 0.03
25,TTGTGAGTGG,0.976 ± 0.017

row,Sequence,switch fluorescence ratio
1,TTGTGCCTAT,1.005 ± 0.0071
2,TTGTGCGAGA,0.989 ± 0.013
3,TTGTGGAAGC,1.01 ± 0.025
4,TTGTGGCAAC,1.24 ± 0.3
5,TTGTGGGAAT,1.05 ± 0.077
6,TTGTGGGGGA,1.02 ± 0.046
7,TTGTGGTACG,0.981 ± 0.041
8,TTGTGGTGTT,0.986 ± 0.023
9,TTGTGTAGGG,1.01 ± 0.017
10,TTGTGTAGTC,1.005 ± 0.0091
11,TTGTGTC,1.06 ± 0.023
12,TTGTGTCTGC,0.999 ± 0.011
13,TTGTGTGGTG,0.98 ± 0.011
14,TTGTGTGTTT,0.989 ± 0.024
15,TTGTGTTTTC,0.9971 ± 0.006
16,TTGTTA,0.964 ± 0.044
17,TTGTTAAATA,0.98 ± 0.011
18,TTGTTAAATT,0.98 ± 0.018
19,TTGTTAGAAT,1.038 ± 0.0047
20,TTGTTAGCCC,1.026 ± 0.0026
21,TTGTTAGCCT,1.05 ± 0.019
22,TTGTTAGGGC,1.07 ± 0.017
23,TTGTTAGGGG,0.986 ± 0.019
24,TTGTTATTAG,1.03 ± 0.047
25,TTGTTATTTT,1 ± 0.03

row,Sequence,switch fluorescence ratio
1,TTGTTCAAGT,0.998 ± 0.043
2,TTGTTCAGGG,0.99 ± 0.013
3,TTGTTCGAGG,0.988 ± 0.026
4,TTGTTCGATG,0.99 ± 0.025
5,TTGTTCGATT,1 ± 0.034
6,TTGTTCGGGA,1.016 ± 0.0094
7,TTGTTCGGGG,1.03 ± 0.056
8,TTGTTCGGTA,1.02 ± 0.016
9,TTGTTCGTAG,0.981 ± 0.034
10,TTGTTGAGAA,0.995 ± 0.056
11,TTGTTGAGAT,1.02 ± 0.035
12,TTGTTGAGGG,1.014 ± 0.0042
13,TTGTTGCTTT,1.02 ± 0.03
14,TTGTTGGCGA,1.04 ± 0.023
15,TTGTTGTTAG,1.0094 ± 0.00094
16,TTGTTGTTGG,1.01 ± 0.032
17,TTGTTGTTTT,0.995 ± 0.035
18,TTGTTTAGGT,1 ± 0.03
19,TTGTTTATTC,1.02 ± 0.071
20,TTGTTTGTAA,1.04 ± 0.018
21,TTGTTTGTCC,1.03 ± 0.058
22,TTGTTTGTGT,1.02 ± 0.03
23,TTGTTTGTTC,1.01 ± 0.034
24,TTGTTTTATG,0.998 ± 0.022
25,TTGTTTTTGT,1.03 ± 0.032

row,Sequence,switch fluorescence ratio
1,TTGTTTTTT,1.03 ± 0.018
2,TTGTTTTTTT,1 ± 0.05
3,TTTAAAAAAA,1.02 ± 0.027
4,TTTAAAAAAT,1.02 ± 0.035
5,TTTAAAAGA,1 ± 0.02
6,TTTAAACCTT,1.89 ± 1.2
7,TTTAAACGGA,1.05 ± 0.081
8,TTTAAAGACC,0.993 ± 0.022
9,TTTAAAGAGT,0.972 ± 0.022
10,TTTAAAGGGT,1.01 ± 0.031
11,TTTAAATAAC,1.02 ± 0.029
12,TTTAAATCCT,1.09 ± 0.013
13,TTTAAATTCG,1.01 ± 0.014
14,TTTAAATTTA,1.01 ± 0.028
15,TTTAACCCCC,1.17 ± 0.24
16,TTTAACCGTA,1.02 ± 0.023
17,TTTAACGCAT,1.24 ± 0.12
18,TTTAACTGA,1.04 ± 0.044
19,TTTAACTTAG,1.016 ± 0.0032
20,TTTAAGAAGT,1 ± 0.027
21,TTTAAGAGTG,0.992 ± 0.0031
22,TTTAAGCAAG,1.062 ± 0.0077
23,TTTAAGGCGG,0.989 ± 0.044
24,TTTAAGGGTA,0.994 ± 0.023
25,TTTAAGGGTT,1.02 ± 0.054

row,Sequence,switch fluorescence ratio
1,TTTAAGGTCG,1.03 ± 0.082
2,TTTAAGGTGG,1.015 ± 0.0046
3,TTTAAGTCT,0.984 ± 0.095
4,TTTAAGTGGT,0.998 ± 0.018
5,TTTAATACTT,1.03 ± 0.0052
6,TTTAATAGGG,0.995 ± 0.036
7,TTTAATCGAG,1.04 ± 0.037
8,TTTAATGAAC,1 ± 0.074
9,TTTAATGAGT,1.02 ± 0.024
10,TTTAATGCAA,1.05 ± 0.033
11,TTTAATTAAG,0.985 ± 0.055
12,TTTAATTAAT,0.983 ± 0.023
13,TTTAATTATT,1.02 ± 0.0053
14,TTTAATTCTT,1 ± 0.012
15,TTTAATTGCC,0.993 ± 0.081
16,TTTAATTGGC,1.17 ± 0.19
17,TTTAATTGGT,1.02 ± 0.021
18,TTTAATTGTT,0.978 ± 0.034
19,TTTAATTTAG,1.02 ± 0.024
20,TTTACAAGGT,1.03 ± 0.014
21,TTTACAATCG,0.9899 ± 0.0098
22,TTTACATAAG,1 ± 0.043
23,TTTACCACCT,1.27 ± 0.096
24,TTTACCCTCC,1.21 ± 0.13
25,TTTACCGCTA,1.94 ± 0.58

row,Sequence,switch fluorescence ratio
1,TTTACCTAGA,0.997 ± 0.025
2,TTTACCTGAG,1.37 ± 0.025
3,TTTACCTTGC,2.03 ± 0.19
4,TTTACGAAAA,1.12 ± 0.046
5,TTTACGATTG,1.03 ± 0.029
6,TTTACGTAAA,1.08 ± 0.11
7,TTTACTTCGC,1.54 ± 0.089
8,TTTAGAGGGG,1.02 ± 0.024
9,TTTAGATAAT,1 ± 0.014
10,TTTAGCCCAG,1.013 ± 0.0024
11,TTTAGCCGGT,0.995 ± 0.012
12,TTTAGGACGC,1.02 ± 0.022
13,TTTAGGAGGG,0.997 ± 0.019
14,TTTAGGATAA,1.02 ± 0.013
15,TTTAGGATTG,0.98 ± 0.034
16,TTTAGGCAAT,3.43 ± 2.7
17,TTTAGGCCAT,1.017 ± 0.01
18,TTTAGGCCCC,0.993 ± 0.044
19,TTTAGGCCGA,0.99 ± 0.043
20,TTTAGGGAGT,0.985 ± 0.015
21,TTTAGGGGAT,1.01 ± 0.038
22,TTTAGGGGCC,0.987 ± 0.021
23,TTTAGGGGGA,1.01 ± 0.044
24,TTTAGGGTGA,1.05 ± 0.028
25,TTTAGGGTGC,1.03 ± 0.079

# — the supplement of paper PMC10126150
